Assay results taken from patent US20240132578A1.

Tests used:
Experiment in all cases: cell-based or functional assay
[1] = target: HIV-1 Env of isolate MGRM-C-002 (subtype C) (HIV-1)
[2] = target: HIV-1 Env of isolate MGRM-C-012 (subtype C) (HIV-1)
[3] = target: HIV-1 Env of isolate MGRM-C-025 (subtype C) (HIV-1)
[4] = target: HIV-1 Env of isolate MGRM-G-025 (subtype G), on pseudovirus (HIV-1)
[5] = target: HIV-1 Env of isolate MGRM-C-007 (subtype C) (HIV-1)
[6] = target: HIV-1 Env of isolate MGRM-G-028 (subtype G), on pseudovirus (HIV-1)
[7] = target: HIV-1 Env of isolate 93MW959 (subtype C) (HIV-1)
[8] = target: HIV-1 Env of isolate MGRM-C-009 (subtype C) (HIV-1)
[9] = target: HIV-1 Env of isolate MGRM-G-016 (subtype G), on pseudovirus (HIV-1)
[10] = target: HIV-1 Env of isolate MGRM-G-024 (subtype G), on pseudovirus (HIV-1)
[11] = target: HIV-1 JR-CSF Env D474A (HIV-1 JR-CSF) (UniProt P20871)
[12] = target: HIV-1 Env of isolate MGRM-C-010 (subtype C) (HIV-1)
[13] = target: HIV-1 Env of isolate MGRM-C-023 (subtype C) (HIV-1)
[14] = target: HIV-1 Env of isolate MGRM-C-004 (subtype C) (HIV-1)
[15] = target: HIV-1 Env of isolate MGRM-G-017 (subtype G), on pseudovirus (HIV-1)
[16] = target: HIV-1 Env of isolate MGRM-C-022 (subtype C) (HIV-1)
[17] = target: HIV-1 Env of isolate MGRM-C-026 (subtype C) (HIV-1)
[18] = target: HIV-1 Env of isolate MGRM-G-019 (subtype G), on pseudovirus (HIV-1)
[19] = target: HIV-1 Env of isolate 97ZA012 (subtype C) (HIV-1)
[20] = target: HIV-1 Env of isolate MGRM-C-028 (subtype C) (HIV-1)
[21] = target: HIV-1 Env of isolate MGRM-C-006 (subtype C) (HIV-1)
[22] = target: HIV-1 JR-CSF Env G471A (HIV-1 JR-CSF) (UniProt P20871)
[23] = target: HIV-1 Env of isolate MGRM-C-020 (subtype C) (HIV-1)
[24] = target: HIV-1 Env of isolate MGRM-G-001 (subtype G), on pseudovirus (HIV-1)
[25] = target: HIV-1 Env of isolate MGRM-G-014 (subtype G), on pseudovirus (HIV-1)
[26] = target: HIV-1 Env of isolate MGRM-C-027 (subtype C) (HIV-1)
[27] = target: HIV-1 Env of isolate MGRM-C-024 (subtype C) (HIV-1)
[28] = target: HIV-1 Env of isolate MGRM-C-005 (subtype C) (HIV-1)
[29] = target: HIV-1 Env of isolate MGRM-G-027 (subtype G), on pseudovirus (HIV-1)
[30] = target: HIV-1 Env of isolate MGRM-G-004 (subtype G), on pseudovirus (HIV-1)
[31] = target: HIV-1 Env of isolate MGRM-G-011 (subtype G), on pseudovirus (HIV-1)
[32] = target: HIV-1 Env of isolate 98IN022 (subtype C) (HIV-1)
[33] = target: HIV-1 Env of isolate MGRM-C-019 (subtype C) (HIV-1)
[34] = target: HIV-1 Env of isolate MGRM-C-017 (subtype C) (HIV-1)
[35] = target: HIV-1 Env of isolate MGRM-C-001 (subtype C) (HIV-1)
[36] = target: HIV-1 Env of isolate MGRM-G-006 (subtype G), on pseudovirus (HIV-1)
[37] = target: HIV-1 Env of isolate MGRM-G-013 (subtype G), on pseudovirus (HIV-1)
[38] = target: aMLV envelope, on pseudovirus (negative control)
[39] = target: HIV-1 Env of isolate MGRM-C-013 (subtype C) (HIV-1)
[40] = target: HIV-1 Env of isolate MGRM-G-009 (subtype G), on pseudovirus (HIV-1)
[41] = target: HIV-1 Env of isolate MGRM-C-015 (subtype C) (HIV-1)
[42] = target: HIV-1 Env of isolate MGRM-C-008 (subtype C) (HIV-1)
[43] = target: HIV-1 Env of isolate MGRM-G-015 (subtype G), on pseudovirus (HIV-1)
[44] = target: HIV-1 Env of isolate MGRM-C-014 (subtype C) (HIV-1)

PGT-122 (antibody)
IC50 (µg/mL), pseudovirus neutralization [1]: 0.022 µg/mL | IC50 (µg/mL), pseudovirus neutralization [2]: 2 µg/mL | IC50 (µg/mL), pseudovirus neutralization [3]: 8.69 µg/mL | IC50 (µg/mL), neutralization of pseudovirus [4]: 0.079 µg/mL | IC50 (µg/mL), pseudovirus neutralization [5]: 3.35 µg/mL | IC50 (µg/mL), neutralization of pseudovirus [6]: 0.01 µg/mL | IC50 (µg/mL), pseudovirus neutralization [7]: 0.016 µg/mL | IC50 (µg/mL), pseudovirus neutralization [8]: > 50 µg/mL | IC50 (µg/mL), neutralization of pseudovirus [9]: > 50 µg/mL | IC50 (µg/mL), neutralization of pseudovirus [10]: 0.033 µg/mL | Fold IC50 increase relative to wild-type [11]: 1.8 fold | IC50 (µg/mL), pseudovirus neutralization [12]: > 50 µg/mL | IC50 (µg/mL), pseudovirus neutralization [13]: 0.027 µg/mL | IC50 (µg/mL), pseudovirus neutralization [14]: 0.02 µg/mL | IC50 (µg/mL), neutralization of pseudovirus [15]: 0.032 µg/mL | IC50 (µg/mL), pseudovirus neutralization [16]: 0.012 µg/mL | IC50 (µg/mL), pseudovirus neutralization [17]: 0.006 µg/mL | IC50 (µg/mL), neutralization of pseudovirus [18]: 0.016 µg/mL | IC50 (µg/mL), pseudovirus neutralization [19]: 0.004 µg/mL | IC50 (µg/mL), pseudovirus neutralization [20]: 2.22 µg/mL | IC50 (µg/mL), pseudovirus neutralization [21]: 0.018 µg/mL | Fold IC50 increase relative to wild-type [22]: 1.8 fold | IC50 (µg/mL), pseudovirus neutralization [23]: 14 µg/mL | IC50 (µg/mL), neutralization of pseudovirus [24]: 0.005 µg/mL | IC50 (µg/mL), neutralization of pseudovirus [25]: 0.008 µg/mL | IC50 (µg/mL), pseudovirus neutralization [26]: 0.039 µg/mL | IC50 (µg/mL), pseudovirus neutralization [27]: 0.102 µg/mL | IC50 (µg/mL), pseudovirus neutralization [28]: 0.027 µg/mL | IC50 (µg/mL), neutralization of pseudovirus [29]: 0.606 µg/mL | IC50 (µg/mL), neutralization of pseudovirus [30]: 2.15 µg/mL | IC50 (µg/mL), neutralization of pseudovirus [31]: 31.3 µg/mL | IC50 (µg/mL), pseudovirus neutralization [32]: 0.032 µg/mL | IC50 (µg/mL), pseudovirus neutralization [33]: > 50 µg/mL | IC50 (µg/mL), pseudovirus neutralization [34]: 0.015 µg/mL | IC50 (µg/mL), pseudovirus neutralization [35]: 19.1 µg/mL | IC50 (µg/mL), neutralization of pseudovirus [36]: > 50 µg/mL | IC50 (µg/mL), neutralization of pseudovirus [37]: 3.45 µg/mL | IC50 (µg/mL), neutralization of pseudovirus [38]: > 50 µg/mL | IC50 (µg/mL), pseudovirus neutralization [39]: 32.6 µg/mL | IC50 (µg/mL), neutralization of pseudovirus [40]: 0.514 µg/mL | IC50 (µg/mL), pseudovirus neutralization [41]: > 50 µg/mL | IC50 (µg/mL), pseudovirus neutralization [42]: 0.028 µg/mL | IC50 (µg/mL), neutralization of pseudovirus [43]: > 50 µg/mL | IC50 (µg/mL), pseudovirus neutralization [44]: > 50 µg/mL

PGT-121 (antibody)
IC50 (µg/mL), pseudovirus neutralization [1]: 0.019 µg/mL | IC50 (µg/mL), pseudovirus neutralization [2]: 0.123 µg/mL | IC50 (µg/mL), pseudovirus neutralization [3]: 46.8 µg/mL | IC50 (µg/mL), neutralization of pseudovirus [4]: 0.063 µg/mL | IC50 (µg/mL), pseudovirus neutralization [5]: 0.196 µg/mL | IC50 (µg/mL), neutralization of pseudovirus [6]: 0.014 µg/mL | IC50 (µg/mL), pseudovirus neutralization [7]: 0.013 µg/mL | IC50 (µg/mL), pseudovirus neutralization [8]: > 50 µg/mL | IC50 (µg/mL), neutralization of pseudovirus [9]: > 50 µg/mL | IC50 (µg/mL), neutralization of pseudovirus [10]: 0.014 µg/mL | IC50 (µg/mL), pseudovirus neutralization [12]: > 50 µg/mL | IC50 (µg/mL), pseudovirus neutralization [13]: 0.017 µg/mL | IC50 (µg/mL), pseudovirus neutralization [14]: 0.011 µg/mL | IC50 (µg/mL), neutralization of pseudovirus [15]: 0.004 µg/mL | IC50 (µg/mL), pseudovirus neutralization [16]: 0.015 µg/mL | IC50 (µg/mL), pseudovirus neutralization [17]: 0.002 µg/mL | IC50 (µg/mL), neutralization of pseudovirus [18]: 0.011 µg/mL | IC50 (µg/mL), pseudovirus neutralization [19]: 0.002 µg/mL | IC50 (µg/mL), pseudovirus neutralization [20]: 0.472 µg/mL | IC50 (µg/mL), pseudovirus neutralization [21]: 0.017 µg/mL | IC50 (µg/mL), pseudovirus neutralization [23]: > 50 µg/mL | IC50 (µg/mL), neutralization of pseudovirus [24]: 0.004 µg/mL | IC50 (µg/mL), neutralization of pseudovirus [25]: 0.009 µg/mL | IC50 (µg/mL), pseudovirus neutralization [26]: 0.011 µg/mL | IC50 (µg/mL), pseudovirus neutralization [27]: 0.052 µg/mL | IC50 (µg/mL), pseudovirus neutralization [28]: 0.015 µg/mL | IC50 (µg/mL), neutralization of pseudovirus [29]: 0.124 µg/mL | IC50 (µg/mL), neutralization of pseudovirus [30]: 0.115 µg/mL | IC50 (µg/mL), neutralization of pseudovirus [31]: 3.17 µg/mL | IC50 (µg/mL), pseudovirus neutralization [32]: 0.007 µg/mL | IC50 (µg/mL), pseudovirus neutralization [33]: > 50 µg/mL | IC50 (µg/mL), pseudovirus neutralization [34]: 0.009 µg/mL | IC50 (µg/mL), pseudovirus neutralization [35]: 17.5 µg/mL | IC50 (µg/mL), neutralization of pseudovirus [36]: > 50 µg/mL | IC50 (µg/mL), neutralization of pseudovirus [37]: 3.99 µg/mL | IC50 (µg/mL), neutralization of pseudovirus [38]: > 50 µg/mL | IC50 (µg/mL), pseudovirus neutralization [39]: 7.23 µg/mL | IC50 (µg/mL), neutralization of pseudovirus [40]: 0.02 µg/mL | IC50 (µg/mL), pseudovirus neutralization [41]: 25.1 µg/mL | IC50 (µg/mL), pseudovirus neutralization [42]: 0.012 µg/mL | IC50 (µg/mL), neutralization of pseudovirus [43]: > 50 µg/mL | IC50 (µg/mL), pseudovirus neutralization [44]: 26.9 µg/mL
